According to the supplement of paper PMC10567573:
± gives the standard deviation.

Test: protein stability index of a GFP-peptide fusion (GPS, HEK-293T) (PSI 1-6); higher = more stable
[1] = treatment: DMSO, c terminus: a fixed tail appended
[2] = treatment: MLN4924 1 uM, 8 h, c terminus: a fixed tail appended
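Further: 24-mer peptide tiles fused after GFP, lentivirally expressed, FACS-sorted into six equal bins by GFP/DsRed ratio, decoded by Illumina sequencing, PSI is the read-weighted mean bin number.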

Sequence	protein stability index [1]	protein stability index [2]	protein stability index (treatment: DMSO, c terminus: native)	protein stability index (treatment: MLN4924 1 uM, 8 h, c terminus: native)
PAFLKWLSLASLLVYVAAFSIGLG [SLC2A12]	3.28 ± 0.15	3.48 ± 0.79	–	–
GLLETEPLQGTDEDAVASADFSSM [TPD52L1]	5.34 ± 0.3	5.29 ± 0.37	–	–
LLEDDSDEEEDFFLRGPSGPRFGP [VAMP4]	3.97 ± 0.28	4.04 ± 0.39	–	–
SSFPPSPGPSPDVQLATLAQRVKE [AUP1]	5.1 ± 0.26	5.05 ± 0.15	–	–
ALENLQVEASCSVCLEYLKEPVII [TRIM39]	2.77 ± 1	2.95 ± 0.58	–	–
MGGPAISMASPMSIPTNTMHYGS [CARM1]	–	–	2.96 ± 0.25	2.95 ± 0.23
HTEDFQKEEGTVNGASWHTVAGSL [CPXM2]	4.63 ± 0.069	4.76 ± 0.38	–	–
ELGSEVDITEGDRKPDYTAYVAMI [ATF4]	3.46 ± 0.15	3.61 ± 0.3	–	–
VLLLGSVDGRHLLRTLSRAKFWPR [DNAAF3]	2.08 ± 0.36	2.27 ± 0.15	–	–
IILTNQSVREVTQIKCIELKSELG [P2RY14]	2.14 ± 0.23	2.27 ± 0.19	–	–
ITVAELREAVPALLGEPLAGPELD [CABP4]	3.7 ± 0.39	3.84 ± 0.44	–	–
VKKDHVALQVPRGKEDSTLQLLRE [CBY2]	4.26 ± 0.069	4.37 ± 0.07	–	–
LVHSAVDVPTIQEKVNEGKYRSYE [ZMYND11]	4.47 ± 0.3	4.32 ± 0.2	–	–
VVFLSPLTTFQDQLNRRGEFIQEI [OAS1]	2.47 ± 0.5	2.35 ± 0.48	–	–
ITAFYNEARARARANRGILQQERQ [DNAJC4]	3.4 ± 0.5	3.81 ± 0.36	–	–
REQMEQMKQRIAEENIMKSNIDKK [FAM50A]	5.08 ± 0.31	5.24 ± 0.11	–	–
LAVMGYDRYIAICNPLRYSVLMGH [OR10K2]	2.55 ± 0.28	2.58 ± 0.6	–	–
LPDPNNYYHRRNEMTTTDDLDFKH [CPXM2]	4.55 ± 0.23	4.7 ± 0.45	–	–
IISAHIHPVCSLCWSRDGHKLVSA [RBBP5]	2.45 ± 0.37	2.14 ± 0.24	–	–
WGFGLEELYGLALRFFKEKDGKAF [ACBD3]	2.4 ± 0.12	2.39 ± 0.61	–	–
LPPPCAALWCSGHLNGHAMCQTKH [ADAMTS4]	3.13 ± 0.24	3.17 ± 0.3	–	–
FGATTNYGKDIVKACSLLDVAVHM [ZBED1]	2.17 ± 0.37	2.1 ± 0.34	–	–

Sequence	protein stability index [1]	protein stability index [2]	protein stability index (treatment: DMSO, c terminus: native)	protein stability index (treatment: MLN4924 1 uM, 8 h, c terminus: native)
SEDMWGDEDFTFGAYQPTVVSSEG [FBF1]	4.53 ± 0.23	4.84 ± 0.23	–	–
TLKRGYFQKSLVLISKLPYIHFFH [DENND6A]	3.11 ± 0.73	2.7 ± 0.3	–	–
KSIDDTSNFDDFPESDILQPVPNT [STK38L]	5.25 ± 0.24	5.27 ± 0.077	–	–
AREHFGTVKTHLTSLKTKFPAEQY [TSN]	3.02 ± 0.085	3.08 ± 0.48	–	–
WAQYRQGEARFLPKDLDPSLCTHL [CHIT1]	2.65 ± 0.31	2.78 ± 0.39	–	–
HPDSWRAYPFYWAWLPQAKVPFSQ [PI4K2A]	2.5 ± 0.37	2.02 ± 0.94	–	–
PPAPAPLPPPSAPSLQPSRKLSPT [SCAMP3]	5.34 ± 0.25	5.32 ± 0.12	–	–
TFPFKILGDSGLGPWQLNVFVCRV [P2RY14]	3.47 ± 0.73	3.26 ± 1.5	–	–
SPKYKQDVEGAESQLDEDEHGLHT [TRAF3IP2]	5.45 ± 0.14	5.5 ± 0.27	–	–
TVVGVPSGKVSSSSSSLGNKLQTL [ZC2HC1A]	3.56 ± 0.34	3.73 ± 0.29	–	–
KCRDLSALMHELSNDGARRQFEFY [BTBD10]	2.06 ± 0.3	2.23 ± 0.3	–	–
VALLRAHAGEHLLLGATKRSMVFK [HNF4A]	2.27 ± 0.45	2.48 ± 0.096	–	–
EPYGHLNPKWTKWLQKLCCPCCFG [PI4K2A]	3.33 ± 0.33	3.37 ± 0.21	–	–
CAAVLPGKPGDRNCPEFPPPDRTL [RSPH3]	4.16 ± 0.42	3.76 ± 0.16	–	–
GLSSSSARFLSRSIPSLQSEYVHY [CDC14A]	2.97 ± 0.53	3.02 ± 0.21	–	–
PPGYSAWIKEEAAERYLYFPNWAM [SLC6A17]	2.33 ± 0.28	2.11 ± 0.4	–	–
LDLDSIIDEVRTQYEEIALKSKAE [KRT71]	3.91 ± 0.3	4.21 ± 0.57	–	–
LLPNPYQQDFLGLPEELRRLSGLS [C22orf15]	2.91 ± 0.17	2.91 ± 0.34	–	–
CAGPGFTHNIAHGSLGFEPVYVSC [SPAG8]	2.48 ± 0.75	2.49 ± 0.64	–	–
TLHAVEKLQVRLATKTEPKKLEKY [ELOA2]	3.7 ± 0.31	3.73 ± 0.41	–	–
DTFAAYTREQLYQAIFHAVDQYLA [MCOLN1]	2.66 ± 0.44	2.42 ± 0.44	–	–
DDSCQDQPGTNCALAIKVNLCGHW [ADAMTSL2]	2.57 ± 0.1	2.65 ± 0.46	–	–

Sequence	protein stability index [1]	protein stability index [2]	protein stability index (treatment: DMSO, c terminus: native)	protein stability index (treatment: MLN4924 1 uM, 8 h, c terminus: native)
EEDNVEESEEEGPWEPPVLPILTW [HDAC6]	4.33 ± 0.29	4.62 ± 0.3	–	–
FKKVLDLNPGFQDATLSLKQTILD [TTC32]	2.7 ± 0.24	2.86 ± 0.2	–	–
RFSRQCVVDKDKRNQCRYCRLKKC [HNF4A]	3.22 ± 0.46	3.5 ± 0.61	–	–
APRFNQQLYTAYILENRPPGSLLC [PCDHGC5]	2.1 ± 0.2	2.07 ± 0.28	–	–
TLTSVQLLDCFGIPVLMALSWFIL [SLC35F2]	3.03 ± 0.35	2.65 ± 0.58	–	–
EKCKEEFVEEIKKLATQHKQLISQ [ZMYND11]	4.2 ± 0.28	4.06 ± 1.2	–	–
GRPSMVWLSANPCPHCGDRTFYDP [PRAME]	2.24 ± 0.26	2.33 ± 0.41	–	–
SRILNEMRDQYEQMAEKNRRDAET [KRT16]	4.65 ± 0.27	4.78 ± 0.27	–	–
LEISPDCSQYDRVYCGAGVQKEHE [PCMTD2]	4.56 ± 0.3	4.44 ± 0.21	–	–
KAVNDETCKASHITSSVFPSASLG [FBXO34]	3.66 ± 0.2	3.61 ± 0.18	–	–
LFVADAYKGLFEVNPWKREVKLLL [APMAP]	2.56 ± 0.27	2.34 ± 0.9	–	–
DQDGDQAPEYRGRTELLKDAIGEG [MOG]	5.33 ± 0.34	5.43 ± 0.21	–	–
TPLHVAAANKAVKCAEVIIPLLSS [ANKRD44]	2.44 ± 0.26	2.54 ± 0.22	–	–
AAAAKAFKHPSIRNPVSLVVTRLV [ADAMTS4]	2.22 ± 0.49	2.67 ± 0.48	–	–
YNCGEESLQSCMHFQPNSPASDLE [NANOGP8]	4.51 ± 0.19	4.17 ± 0.45	–	–
TFSGDVQLAQDDIDGIQAIYGRSQ [MMP1]	4.27 ± 0.21	4.55 ± 0.14	–	–
GGGDISVKELGTVMRMLGQTPTKE [TNNC2]	4.04 ± 0.05	3.64 ± 0.83	–	–
ILENRPPGSLLCTVAASDPDTGDN [PCDHGC5]	4.99 ± 0.12	5.06 ± 0.13	–	–
QKLETDAMFRLEHGEADRSTLKKA [YJU2B]	5.22 ± 0.22	5.03 ± 0.14	–	–
YYFGPCGKYNAMVLELLGPSLEDL [CSNK1G3]	3 ± 1.3	2.66 ± 0.43	–	–
MSPGPLDALSSPTSVQEADETTRS [C2CD2L]	5.35 ± 0.37	5.38 ± 0.15	–	–
QATKASLKERFAFLFNSELLSDVR [BTBD1]	2.55 ± 0.22	2.67 ± 0.34	–	–

Sequence	protein stability index [1]	protein stability index [2]	protein stability index (treatment: DMSO, c terminus: native)	protein stability index (treatment: MLN4924 1 uM, 8 h, c terminus: native)
KIKRLRSQVQVSLEDYINDRQYDS [HNF4A]	3.23 ± 0.19	3.45 ± 0.15	–	–
LLPQERPLMQGPRTRPRKPIRCGE [KLHL20]	3.71 ± 0.35	3.98 ± 0.084	–	–
IVRFLESNWFVWVTQMNHIPMHID [FADS1]	3.08 ± 0.95	3.1 ± 1	–	–
AAQAAAAAHAAQAHRERNEFPEDP [PI4K2A]	5.36 ± 0.35	5.5 ± 0.1	–	–
SDENGGTYVSPPGNEEEESKIFTT [DDIT3]	5.53 ± 0.36	5.49 ± 0.31	–	–
WMMQNLLLEEGGLVQVESVNLQVA [UFD1]	2.1 ± 0.29	2.33 ± 0.59	–	–
RSETFLEVWGNALLRPPVAAFVRA [DNAAF3]	2.22 ± 0.21	2.34 ± 0.13	–	–
RRCGELKRKLGLTALVGLRQNLSK [TPD52L3]	2.41 ± 0.34	2.57 ± 0.16	–	–
FTNDKIINLPVEEFNELLSKYQLS [NFE2L1]	2.85 ± 0.28	2.76 ± 0.16	–	–
QHLGEYENVLAALEGLNLSILKAM [NECAB1]	2.25 ± 0.24	2.38 ± 0.23	–	–
KEYPVVPRSTVRQKVASNHSPFSS [TBX5]	3.61 ± 0.38	3.72 ± 0.32	–	–
FRKVKQMHLNFMDEKDRIITAFYN [DNAJC4]	2.26 ± 0.2	2.41 ± 0.28	–	–
NASFIDGYRQQKAYIATQGPLAET [PTPRD]	3.46 ± 0.43	3.53 ± 0.49	–	–
VCVDRVLYLFGGHHSRGNTNKFYM [KLHDC2]	2.37 ± 1.4	2.86 ± 1.1	–	–
VEEFGVVSNTRLIAAATSVLKTRF [CCNC]	2.88 ± 0.61	2.26 ± 0.68	–	–
ALGCVMYTMLLGRPPFETTNLKET [PLK2]	2.72 ± 0.74	2.79 ± 1.1	–	–
TGFTVNVAWNGPRMGDADYLAAWH [HDAC6]	2.43 ± 0.52	2.18 ± 0.26	–	–
FAGSMFGSVALGPVCPTVCPPGGI [KRT71]	2.73 ± 0.61	2.36 ± 0.57	–	–
FCIPEHISPKARCLIRSLLRREPS [TRIB1]	2.34 ± 0.47	2.03 ± 0.32	–	–
WLPLHYAAWQGHLPIVKLLAKQPG [RIPK4]	1.94 ± 0.24	2.63 ± 0.81	–	–
MEPPGPVRGPLQDSSWYEPSAELV [ZNF232]	4.79 ± 0.3	4.67 ± 0.43	–	–
KKRVSMILQSPAFCEELESMIQEQ [ADD1]	3.58 ± 0.27	3.76 ± 0.43	–	–
